# Measurements published in patent publication US20110243947A1 (Eli Lilly, published 2011).
# T1: mouse CSF-1R (mouse, UniProt P09581 20-511, limits assumed)
# T1 construct: also called murine form of the receptor
# T1 sequence (looked up): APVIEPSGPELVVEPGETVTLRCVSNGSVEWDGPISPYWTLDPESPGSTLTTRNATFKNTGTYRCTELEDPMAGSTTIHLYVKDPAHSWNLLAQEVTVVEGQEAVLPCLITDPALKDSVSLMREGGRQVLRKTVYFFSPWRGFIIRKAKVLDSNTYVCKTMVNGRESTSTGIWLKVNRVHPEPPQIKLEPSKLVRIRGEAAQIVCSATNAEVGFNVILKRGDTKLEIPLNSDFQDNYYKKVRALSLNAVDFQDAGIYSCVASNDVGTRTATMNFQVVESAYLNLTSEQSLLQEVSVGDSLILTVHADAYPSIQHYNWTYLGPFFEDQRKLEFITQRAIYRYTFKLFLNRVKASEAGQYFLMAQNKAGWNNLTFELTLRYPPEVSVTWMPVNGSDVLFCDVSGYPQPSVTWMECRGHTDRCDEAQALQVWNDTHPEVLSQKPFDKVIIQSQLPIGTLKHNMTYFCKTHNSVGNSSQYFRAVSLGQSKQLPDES
# B1: Antibody 1 (antibody, human IgG1, kappa, V domains shown)
# VH: QDQLVESGGGVVQPGRSLRLSCAASGFTFSSYGMHWVRQAPGEGLEWVAVIWYDGSNKYYADSVKGRFTISRDNSKNTLYLQMNSLRAEDTAVYYCARGDYEVDYGMDVWGQGTTVTVAS
# VL: AIQLTQSPSSLSASVGDRVTITCRASQGISNALAWYQQKPGKAPKLLIYDASSLESGVPSRFSGSGSGTDFTLTISSLQPEDFATYYCQQFNSYPWTFGQGTKVEIKR
# notes: also called anti-CSF-1R Antibody 1
# Legend:
# chimera 3 (m,m,m) = molecular target: T2, chimera 3 (m,m,m) (mouse; human, UniProt P09581 21-292); experiment: binding ELISA, coated chimera
# T2 construct: range 21-292; not shown: Fc portion of an IgG molecule
# T2 sequence (P09581 other isoform, or with tags, fused parts or gaps mutant): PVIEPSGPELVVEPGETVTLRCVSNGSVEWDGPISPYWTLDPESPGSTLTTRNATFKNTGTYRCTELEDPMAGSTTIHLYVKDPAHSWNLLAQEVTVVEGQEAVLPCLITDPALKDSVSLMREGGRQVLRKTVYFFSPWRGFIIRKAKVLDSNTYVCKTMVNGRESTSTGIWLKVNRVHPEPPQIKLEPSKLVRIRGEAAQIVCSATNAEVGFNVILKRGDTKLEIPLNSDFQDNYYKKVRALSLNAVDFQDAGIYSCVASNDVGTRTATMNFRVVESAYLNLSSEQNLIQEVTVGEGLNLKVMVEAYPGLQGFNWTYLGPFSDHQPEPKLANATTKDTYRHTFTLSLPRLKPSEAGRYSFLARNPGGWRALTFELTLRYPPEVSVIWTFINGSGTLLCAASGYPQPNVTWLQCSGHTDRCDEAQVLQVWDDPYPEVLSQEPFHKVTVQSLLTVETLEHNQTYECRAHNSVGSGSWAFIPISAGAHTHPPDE
# Experimental: (§1) Briefly, coat plates with 100 μL of 200 ng/mL human, mouse or chimera 1-7 proteins overnight.
# mouse CSF-1R = molecular target: T1, mouse CSF-1R; experiment: binding ELISA, coated receptor protein
# Experimental: as §1
binder,measurement,setting,value
B1,binding result,"chimera 3 (m,m,m)",no binding (tested: 100 nM)
same,binding result,mouse CSF-1R,no binding (tested: 100 nM)
